The values below come from paper doi:10.1101/2024.12.26.630380.

Common to all, as to test: single-molecule fluorescence
The target in data set [1] is T1, pMcsB (Geobacillus stearothermophilus (printed …, UniProt P0DMM5)).
T1 sequence: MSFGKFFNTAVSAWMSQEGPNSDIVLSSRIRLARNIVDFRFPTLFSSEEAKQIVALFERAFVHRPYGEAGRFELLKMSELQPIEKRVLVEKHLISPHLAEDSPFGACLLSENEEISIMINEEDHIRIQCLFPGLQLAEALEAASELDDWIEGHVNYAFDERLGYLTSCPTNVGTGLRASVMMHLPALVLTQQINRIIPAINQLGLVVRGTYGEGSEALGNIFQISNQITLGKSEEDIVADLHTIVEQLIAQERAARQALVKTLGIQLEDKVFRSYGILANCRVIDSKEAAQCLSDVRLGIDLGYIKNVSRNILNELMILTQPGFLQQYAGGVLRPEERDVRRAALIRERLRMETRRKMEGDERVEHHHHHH

For data set [2], the target named is T2, pMcsB-HaloTag (Geobacillus stearothermophilus (printed …, UniProt P0DMM5 1-363)).
T2 sequence: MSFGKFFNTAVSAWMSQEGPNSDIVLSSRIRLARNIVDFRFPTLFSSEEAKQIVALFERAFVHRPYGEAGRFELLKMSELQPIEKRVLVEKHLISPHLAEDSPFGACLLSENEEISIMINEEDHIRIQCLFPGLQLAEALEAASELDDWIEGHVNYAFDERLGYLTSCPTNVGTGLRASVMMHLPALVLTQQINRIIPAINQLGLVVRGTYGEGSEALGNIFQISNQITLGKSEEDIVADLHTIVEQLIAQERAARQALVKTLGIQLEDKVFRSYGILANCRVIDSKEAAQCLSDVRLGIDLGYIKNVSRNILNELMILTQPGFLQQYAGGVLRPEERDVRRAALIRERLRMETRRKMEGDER

Data set [3] has as its target T3, CtsR (Geobacillus stearothermophilus (printed …, UniProt C3W947)).
T3 sequence: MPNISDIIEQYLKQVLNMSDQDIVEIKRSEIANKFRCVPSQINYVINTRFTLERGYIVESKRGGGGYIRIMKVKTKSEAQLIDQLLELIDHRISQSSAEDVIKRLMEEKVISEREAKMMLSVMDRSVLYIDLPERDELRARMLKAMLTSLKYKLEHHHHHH

B1: cognate Cy3 DNA probe (T7 label) (dsDNA)
DNA 1: CGATTACGGCAATTCAGGAATACCGCTAATG
DNA 2: GCTGATTAAGGTCAAATATAGTCAAAATAGAGTTCATTAGCGGTATTCCTGAATTGCCGTAATCG
DNA 3: CTCTATTTTGACTATATTTGACCTTAATCAGC
modifications: amino-C6-dT at T7 of strand 3 (S8 printed split around it)
For orientation: Kd means the concentration at which binding is half-saturated. A low value points to tighter binding. In the case of B1, the binding result in data set [1] and in data set [2] was “no binding” in each case. The Kd in data set [3] was about 12 nM.
